Patent publication US20240390433A1, “GENETICALLY MODIFIED BACILLUS SUBTILIS STRAIN AND USE AS A LIVE DELIVERY AND […]” (BiomEdit, LLC, priority 2021, published 2024)
“And” between values parts separate entries of the source, which are not always exact repeats. Equal values may be shown once. “Also recorded” adds a separate entry of the source.

Legend:
[1] = system: Clostridium perfringens alpha toxin; format: biochemical
[2] = target: recombinant NetB (wild type NetB), Clostridium perfringens (Clostridium perfringens); assay: cell-based or functional assay

B1: EAT-1G4 (protein, listed as Camelus sp.)
VHH: EVQLVESGGGLVQPGGSLRLSCAASGSIATINDMGWFRQAPGKQRDWVATIVSDGSTAYADSVKGRFTISRDNAKNTVYLQMNSLKPEDTAVYYCSARRHYGQGTQVTVSSAAASGSLEQKLISEEDLNGAAHHHHHHGAA
modifications: REGION 1..141: note = Description of sequence: EAT-1G4 antibody
In the case of B1, the lecithinase activity neutralized [1] is reported as 100% and the “neutralization of alpha toxin lecithinase activity (in words)” value [1] is reported as “less capable of neutralizing”.

B2: VHH antibody ENB-1D11 (VHH)
VHH: EVQLVESGGGLVQTGGSLRLSCTASGTIDMTYGLIWYRQAPGKERELVASIRRDGRTNYADSVKGRFTISIDNAKNSIHLQMNSLKPDDTARYYCNSPYHALWGQGTQVTVSS
For B2, the lowest VHH concentration neutralizing NetB haemolysis [2] was 1.25 µM and 0.625 µM.

B3: VHH antibody ENB-1A4 (VHH)
VHH: EVQLVESGGGLVQAGGSLRLSCAASGSIFSTNVMGWYRQAPGKQREFVAGITIGGTARYPDSVKGRFTISRDNTQNTVYLQMNNLKPEDTAVYYCNAVLPSDQRRWSWGQGTQVTVSS
In the case of B3, the lowest VHH concentration neutralizing NetB haemolysis [2] is reported as 1.25 µM and 0.625 µM.

B4: EAT-1F2 (protein, listed as Camelus sp.)
VHH: EVQLVESGGGLVQAGGSLRLSCAGSGRTGSLYSMGWFRQAPGKEREFVAAITWRPSSTYYADSVKGRFTISRDDAKNTVYLQMNSLKPEDTAVYFCAARPRGGLSPTPQAYDYWGQGTQVTVSSAAASGSLEQKLISEEDLNGAAHHHHHHGAA
modifications: REGION 1..154: note = Description of sequence: EAT-1F2 antibody
With B4 the “neutralization of alpha toxin lecithinase activity (in words)” value [1] was “high neutralizing capacity; also recorded: unable to completely neutralize” and the residual lecithinase activity [1] was “about 25%”.
